Square brackets hold non-standard residues; d marks the D form. Ends that are not written are not given here. Met(O) = CS(=O)CC[C@H](N)C(=O)O
Key:
ROMK1 channel = target: T1, ROMK1 channel (Rattus norvegicus, UniProt P35560); test: Two-electrode voltage clamp of wild-type ROMK1 channel in Xenopus oocytes; type: cell-based
T1 construct: expressed in transfected cells; host or cells: Xenopus laevis oocytes (cRNA injection)
T1 sequence (P35560 1-391): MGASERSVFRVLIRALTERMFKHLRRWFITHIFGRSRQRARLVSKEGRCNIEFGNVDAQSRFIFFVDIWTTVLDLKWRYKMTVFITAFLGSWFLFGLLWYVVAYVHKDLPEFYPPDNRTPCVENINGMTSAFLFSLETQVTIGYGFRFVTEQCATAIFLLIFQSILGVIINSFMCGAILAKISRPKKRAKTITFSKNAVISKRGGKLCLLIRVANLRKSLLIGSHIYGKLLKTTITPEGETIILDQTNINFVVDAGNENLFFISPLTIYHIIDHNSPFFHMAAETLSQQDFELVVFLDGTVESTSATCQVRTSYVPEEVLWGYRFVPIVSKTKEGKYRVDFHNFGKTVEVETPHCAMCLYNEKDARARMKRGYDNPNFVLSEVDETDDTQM
Method: Oocytes harvested from Xenopus laevis frogs were digested with collagenase (2 mg/mL) in a solution containing: NaCl, 82.5 mM; KCl, 2.5 mM; MgCl2, 1.0 mM; HEPES, 5.0 mM (pH 7.6) and were agitated on a platform shaker at a rate of 80 rpm for 90 minutes. The oocytes were then rinsed thoroughly with and stored in a solution containing: gentamicin, 50 μg/mL; NaCl, 96 mM; KCl, 2 mM; CaCl2, 1.8 mM; MgCl, 1 mM; HEPES, 5 mM (pH 7.6). Defolliculated oocytes were selected at least 2 hours after the collagenase digestion. To express channels, the corresponding cRNA was directly injected into oocytes. To express the GIRK1/4 channel, GIRK1 and GIRK4 cRNAs were co-injected with either M2 or M4 receptor cRNA. All injections were carried out at least 16 hours after the collagenase treatment. The injected oocytes were stored in an 18° C. incubator.
All three inward-rectifier K^+ channels, GIRK1/4, ROMK1, and IRK1, were studied using a two-electrode voltage clamp amplifier (Oocyte Clamp OC-725C, Warner Instruments Corp.). The resistance of electrodes filled with 3 M KCl were 0.2–0.4 M Ω. To elicit current through the channel, the membrane potential of oocytes was stepped to −80 mV (100–125 ms) and then to +80 mV (100–125 ms) from the holding potential of 0 mV. […] Tertiapin concentration was calculated using an extinction coefficient 6.1 mM^−1 cm^−1 at 280 nm wavelength. […]

[1] = target: T2, ROMK1 inward-rectifier K+ channel (Rattus norvegicus, UniProt P35560); conditions: literature values; read-out: Kd for block of ROMK1; cited from earlier work
T2 sequence (P35560 1-391): T1 sequence (P35560 1-391)

Substance	sensitivity / affinity of the ROMK1 channel, in words (ROMK1 channel)	Kd [1]
oxidized form of tertiapin: tertiapin whose methionine residue M13 has become oxidized (ALCNCNRIIIPH[Met(O)]CWKKCGKK; disulfide (positions not given here); ends not checked; UniProt P56587 1-21, looked up)	lower affinity than the non-oxidized form	
Δ-dendrotoxin		0.15 µM
